The series relates to progesterone. Kind of series: In vivo activity of bovine P45017α in whole cells of transformed Kluyveromyces lactis (3H-labelled steroid, RP-HPLC). It is filed as cell-based. As to conditions: expressed in K. lactis under the lactase promoter. On the procedure:
Transformation of K. lactis strain CBS 2360 was performed with pGB 17α-5 as described in Example 14 and in vivo activity was determined in the whole cells of the transformed K. lactis strain. Four independent transformants (17α-3,17α-7,17α-10 and 17α-11) were grown in rich medium (10 g of yeast extracts, 10 g of bactopeptone and 20 g of glucose/liter) for 72 hours to reach an A600 of at least 30. The cells were harvested and resuspended at 1×10^6 cells/ml (A600 =1).
Five ml of culture were incubated in the presence of ^3H-labelled progesterone (20 μM) for 24 hours at 28° C. and then were extracted with dichloromethane. […] The amount of 17α-hydroxyprogesterone was about 40% (about 23% to 58% depending on the transformant) of the substract added (see FIG. 57 corresponding to 17α-3). No androstenedione, which was the product of the C17-20-lyase activity of P45017α, was detected.
^3H-labelled 17α-hydroxyprogesterone was also incubated with the transformants under the conditions described above and after 24 hours of incubation, no androstenedione was detected.

B1: bovine P45017α: bovine cytochrome P450 steroid 17α-hydroxylase expressed in K. lactis under the lactase promoter (protein, UniProt P05185 1-509, looked up)
Steroid …: MWLLLAVFLLTLAYLFWPKTKHSGAKYPRSLPSLPLVGSLPFLPRRGQQHKNFFKLQEKYGPIYSFRLGSKTTVMIGHHQLAREVLLKKGKEFSGRPKVATLDILSDNQKGIAFADHGAHWQLHRKLALNAFALFKDGNLKLEKIINQEANVLCDFLATQHGEAIDLSEPLSLAVTNIISFICFNFSFKNEDPALKAIQNVNDGILEVLSKEVLLDIFPVLKIFPSKAMEKMKGCVQTRNELLNEILEKCQENFSSDSITNLLHILIQAKVNADNNNAGPDQDSKLLSNRHMLATIGDIFGAGVETTTSVIKWIVAYLLHHPSLKKRIQDDIDQIIGFNRTPTISDRNRLVLLEATIREVLRIRPVAPTLIPHKAVIDSSIGDLTIDKGTDVVVNLWALHHSEKEWQHPDLFMPERFLDPTGTQLISPSLSYLPFGAGPRSCVGEMLARQELFLFMSRLLQRFNLEIPDDGKLPSLEGHASLVLQIKPFKVKIEVRQAWKEAQAEGSTP
As for B1, the C17-20 lyase activity entry is reported as “does not show any activity C17-20 lyase”.

The record behind these values is patent US6632633B1, “Process for oxidation of steroids and genetically engineered cells used therein” (Aventis Pharma, S.A., priority 1988, dated 2003).
